Values quoted from earlier work in publication PMC12287344.

Target: caspase-1 (Homo sapiens) (UniProt P29466)

Substance: caspase-1 (from UniProt P29466)
- Kd: 110 µM
